# Measurements reported in patent publication US20210275686A1, “BINDER/ACTIVE AGENT CONJUGATES DIRECTED AGAINST CXCR5, HAVING ENZYMATICALLY CLEAVABLE LINKERS AND IMPROVED ACTIVITY PROFILE” (BAYER AKTIENGESELLSCHAFT, priority 2018, published 2021).
# Target: T1, CXCR5 (CD185; SwissProt: P32302; NCBI reference sequence: NP_001707.1) (human, UniProt P32302 1-372)
# T1 sequence: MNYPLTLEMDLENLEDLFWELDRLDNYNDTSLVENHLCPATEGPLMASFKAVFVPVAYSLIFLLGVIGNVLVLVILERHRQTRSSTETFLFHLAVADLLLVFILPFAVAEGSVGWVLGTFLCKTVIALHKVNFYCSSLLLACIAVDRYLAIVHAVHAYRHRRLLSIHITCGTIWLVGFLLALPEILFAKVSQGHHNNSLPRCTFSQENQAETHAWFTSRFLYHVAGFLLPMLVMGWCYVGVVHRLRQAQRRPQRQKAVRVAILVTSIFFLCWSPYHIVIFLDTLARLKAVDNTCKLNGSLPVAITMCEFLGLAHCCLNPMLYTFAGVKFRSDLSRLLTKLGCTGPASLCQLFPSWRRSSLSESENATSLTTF
# Experiment: cell-based or functional assay
# Conditions: not given
Molecule,Internalization Rec-1 [MFI],Internalization SU-DHL-6 [MFI]
"TPP-14495 (antibody, human IgG1, lambda, V domains shown, CypHer 5E fluorescent dye coupled to lysine residues (positions not stated)) VH: EVQLLESGGGLVQPGGSLRLSCAASGFTFSNYWMSWVRQAPGKGLEWVSAISGSGGSTRYADSVKGRFTISRDNSKNTLYLQMNSLRAEDTAVYYCTTQRRELGATNWGQGTLVTVSS VL: QSVLTQPPSASGTPGQRVTISCTGSSSNIGAGYVVHWYQQLPGTAPKLLIYSNNQRPSGVPDRFSGSKSGTSASLAISGLRSEDEADYYCQSYDSSLSGVVFGGGTKLTVLG",84,12
"TPP-14499 (antibody, human IgG1, lambda, V domains shown, CypHer 5E fluorescent dye coupled to lysine residues (positions not stated)) VH: EVQLLESGGGLVQPGGSLRLSCAASGFTFSNYWGSWVRQAPGKGLEWVSAISGSGGSTYYADSVKGRFTISRDNSKNTLYLQMNSLRAEDTAVYYCTVLRRELGATNWGQGTLVTVSS VL: QSVLTQPPSASGTPGQRVTISCTGSSSNIGAGYVVHWYQQLPGTAPKLLIYSNNQRPSGVPDRFSGSKSGTSASLAISGLRSEDEADYYCQSYDSSLSGVVFGGGTKLTVLG",122,55
"TPP-14514 (antibody, human IgG1, lambda, V domains shown, CypHer 5E fluorescent dye coupled to lysine residues (positions not stated)) VH: EVQLLESGGGLVQPGGSLRLSCAASGFTFSNNWMSWVRQAPGKGLEWVSAISGSGGSTYYADSVKGRFTISRDNSKNTLYLQMNSLRAEDTAVYYCTVQRRELGATNWGQGTLVTVSS VL: QSVLTQPPSASGTPGQRVTISCTGSSSNIGAGYVVHWYQQLPGTAPKLLIYSNNQRPSGVPDRFSGSKSGTSASLAISGLRSEDEADYYCQSYDSSLSGVVFGGGTKLTVLG",134,53
"TPP-14511 (antibody, human IgG1, lambda, V domains shown, CypHer 5E fluorescent dye coupled to lysine residues (positions not stated)) VH: EVQLLESGGGLVQPGGSLRLSCAASGFTFSNYWMSWVRQAPGKGLEWVSAISGSGGTTYYADSVKGRFTISRDNSKNTLYLQMNSLRAEDTAVYYCTTQRRELGATNWGQGTLVTVSS VL: QSVLTQPPSASGTPGQRVTISCTGSSSNIGAGYVVHWYQQLPGTAPKLLIYSNNQRPSGVPDRFSGSKSGTSASLAISGLRSEDEADYYCQSYDSSLSGVVFGGGTKLTVLG",99,24
"TPP-14509 (antibody, human IgG1, lambda, V domains shown, CypHer 5E fluorescent dye coupled to lysine residues (positions not stated)) VH: EVQLLESGGGLVQPGGSLRLSCAASGFTFSNYWMSWVRQAPGKGLEWVSAISGSGGSTYYADSVKGRFTISRDNSKNTLYLQMNSLRAEDTAVYYCTVQRRELGATNWGQGTLVTVSS VL: QSVLTQPPSASGTPGQRVTISCTGSSSNIGAGYVVHWYQQLPGTAPKLLIYSNNQRPSGVPDRFSGSKSGTSASLAISGLRSEDEADYYCQSYDSSLSGVVFGGGTKLTVLG",129,51
"TPP-10063 (antibody, human IgG1, lambda, V domains shown, CypHer 5E fluorescent dye coupled to lysine residues (positions not stated)) VH: EVQLLESGGGLVQPGGSLRLSCAASGFTFSNYWMSWVRQAPGKGLEWVSAISGSGGSTYYADSVKGRFTISRDNSKNTLYLQMNSLRAEDTAVYYCTTLRRELGATNWGQGTLVTVSS VL: QSVLTQPPSASGTPGQRVTISCTGSSSNIGAGYVVHWYQQLPGTAPKLLIYSNNQRPSGVPDRFSGSKSGTSASLAISGLRSEDEADYYCQSYDSSLSGVVFGGGTKLTVLG",65,22
"TPP-14505 (antibody, human IgG1, lambda, V domains shown, CypHer 5E fluorescent dye coupled to lysine residues (positions not stated)) VH: EVQLLESGGGLVQPGGSLRLSCAASGFTFSNNWMSWVRQAPGKGLEWVSAISGSGGSTYYADSVKGRFTISRDNSKNTLYLQMNSLRAEDTAVYYCNVQRRELGATNWGQGTLVTVSS VL: QSVLTQPPSASGTPGQRVTISCTGSSSNIGAGYVVHWYQQLPGTAPKLLIYSNNQRPSGVPDRFSGSKSGTSASLAISGLRSEDEADYYCQSYDSSLSGVVFGGGTKLTVLG",135,61
"40C01 (antibody, human IgG1, kappa, V domains shown, CypHer 5E fluorescent dye coupled to lysine residues (positions not stated)) VH: EVQLLESGGGLVQPGGSLRLSCAASGFTFSRYVMVWVRQAPGKGLEWVSGISPSGGVTRYAASVKGRFTISRDNSKNTLYLQMNSLRAEDTAVYYCARIRKEMTTISYFFDYWGQGTLVTVSS VL: DIQMTQSPSSLSASVGDRVTITCRASQGVDAYVAWYQQKPGKVPKLLIYSTSTLASGVPSRFSGSGSGTDFTLTISSLQPEDVATYYCQSHNAAVVTFGQGTRLEIKR",49,13

# Target: CXCR5 (CD185; SwissProt: P32302; NCBI reference sequence: NP_001707.1) (human) (UniProt P32302)
# Experiment: cell-based or functional assay
# Conditions: not given
Molecule,Internalization Rec-1 [MFI],Internalization SU-DHL-6 [MFI]
Isotype control (antibody),2,1

# System: Rec-1: human mantle cell lymphoma cells
# Experiment: Cytotoxic activity, CTG assay, Rec-1
# Format: cell-based
# Conditions: Rec1, metabolites
# Procedure: (§1) The culturing of the cells is performed according to the standard method, as specified at the American Tissue Culture Collection (ATCC) or the Leibniz-Institut DSMZ-Deutsche Sammlung von Mikroorganismen and Zellkulturen GmbH (DSMZ) for the respective cell lines.
# The cells were cultured using the standard method, with the growth media specified under C-1. To perform the test, the suspended cells were counted and seeded in a 96-well culture plate with a white background (Perkin Elmer, NO 10775584) (at 75 μL/well; the resulting cell numbers per well are: Rec-1: 3000 cells/well, HBL-1 and Oci-Ly-1: 6000 cells/well) and incubated in an incubator at 37° C. and 5% carbon dioxide. […] In a parallel plate, the cell vitality was determined at the beginning of the active agent treatment (day 0) with the Cell Titer Glow (CTG) Luminescent Cell Viability Assay (Promega #G7573 and #G7571). For this purpose, 100 μL of the substrate were added per cell batch; then the plates were covered with aluminum foil, shaken for 2 minutes at 180 rpm with the plate shaker, allowed to stand for 8 minutes on the laboratory bench and then measured with a luminometer (Victor X2, Perkin Elmer). The substrate detected the ATP content in the living cells, generating a luminescence signal whose height is directly proportional to the vitality of the cells. […]
row,Molecule,IC50 [nM]
1,"CC(C)(C)[C@H](c1cc(-c2cc(F)ccc2F)cn1Cc1ccccc1)N(CC[C@H](N)C(=O)NCCC(=O)N[C@H](CCC(=O)O)C(=O)O)C(=O)CO [Example M1, N-{(2S)-2-Amino-4-[{(1R)-1-[1-benzyl-4-(2,5-difluorophenyl)-1H-pyrrol-2-yl]-2,2-dimethylpropyl}(glycoloyl)amino]butanoyl}-beta-alanyl-D-glutamic acid]",309

# Target: T2, legumain (Homo sapiens, UniProt Q99538)
# T2 construct: purchased R&D Systems 2199-CY
# T2 sequence (Q99538 26-323 limits assumed): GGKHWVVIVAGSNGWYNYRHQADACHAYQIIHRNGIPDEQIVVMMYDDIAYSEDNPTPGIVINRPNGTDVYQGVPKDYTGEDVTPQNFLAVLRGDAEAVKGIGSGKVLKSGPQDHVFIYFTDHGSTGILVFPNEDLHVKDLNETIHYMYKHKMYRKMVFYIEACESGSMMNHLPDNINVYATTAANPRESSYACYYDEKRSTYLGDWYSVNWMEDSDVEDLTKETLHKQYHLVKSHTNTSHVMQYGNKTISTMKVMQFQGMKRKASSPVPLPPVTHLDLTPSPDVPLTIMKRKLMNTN
# Experiment: Legumain assay
# Format: biochemical
# Conditions: recombinant human legumain (rhlegumain), 3 μM substrate, pH 5.0, read-out: half-life of legumain-mediated cleavage (converted)
# Procedure: The legumain assay was performed with recombinant human enzyme. The rhlegumain enzyme solution (Catalog #2199-CY, R&D Systems) was diluted to the desired concentration in 50 mM Na acetate buffer/100 mM NaCl, pH4.0, and preincubated for 2 h at 37° C. The rhlegumain was then adjusted to a final concentration of […] in 50 mM MES buffer, 250 mM NaCl, pH 5.0. For each legumain-cleavable prodrug to be investigated, a reaction mixture was made up in a micro-reaction vessel (0.5 ml, Eppendorf). For this, the substrate solution was adjusted with 50 mM MES buffer, 250 mM NaCl, pH 5.0 to the desired concentration (2-fold concentration). For the kinetic measurement of the enzymatic reaction, first 250 μL of the legumain solution was taken and the enzymatic reaction was started by adding 250 μL of the substrate solution (final concentration, single concentration; 3 μM). Samples of 50 μL each were taken at various times. Immediately, 100 μL ice-cold methanol was added to the sample to stop the enzymatic reaction and then frozen at −20° C. The selected sampling times were after 0.5 h, 1 h, 3 h and 24 h. The samples were then examined by RP-HPLC analysis and by LC-MS. The determination of the toxophore released enabled the determination of the half-time t1/2 of the enzymatic reaction.
row,Molecule,half-life at 3 µM [min]
1,CNC(=O)[C@H](CCN(C(=O)CO)[C@@H](c1cc(-c2cc(F)ccc2F)cn1Cc1ccccc1)C(C)(C)C)NC(=O)[C@H](CC(N)=O)NC(=O)[C@H](C)N(C)C(=O)[C@H](C)NC(=O)Cc1ccncc1 [Model Compound A],30

# System: Rec-1: human mantle cell lymphoma cells
# Experiment: Cytotoxic activity, MTT assay, Rec-1
# Format: cell-based
# Conditions: Rec1, metabolites, 96 h
# Procedure: as §1
# The culturing of the cells was performed according to the standard method with the growth media specified under C-1. For execution, the cells were separated with a solution of Accutase in PBS (Biochrom AG #L2143), pelleted, resuspended in culture medium, counted and seeded on a 96-well culture plate with a white background (Costar #3610) (NCI H292: 2500 cells/well; in 100 μL total volume). Then the cells were incubated in an incubator at 37° C. and 5% carbon dioxide. After 48 h a change of medium was performed. […] The cells in the suspension were counted and seeded into a 96-well culture plate with white background (Costar #3610) (#3610) (Rec-1: 3000 cells/well at a total volume of 100 μL). […] After 96 h the cell proliferation was detected using the MTT assay (ATCC, Manassas, Va., USA, Catalog No. 30-1010K). […] The color formed was detected at 570 nm (Infinite M1000 pro, Tecan). Based on the measured data the IC50 of the growth inhibition was calculated using the DRC (dose-response curve). […]
row,Molecule,IC50 [nM]
1,"CC(C)(C)[C@H](c1cc(-c2cc(F)ccc2F)cn1Cc1ccccc1)N(CC[C@H](N)C(=O)NCCC(=O)N[C@H](CCC(=O)O)C(=O)O)C(=O)CO [Example M1, N-{(2S)-2-Amino-4-[{(1R)-1-[1-benzyl-4-(2,5-difluorophenyl)-1H-pyrrol-2-yl]-2,2-dimethylpropyl}(glycoloyl)amino]butanoyl}-beta-alanyl-D-glutamic acid]",387
